Experimental findings from paper PMC10039853, “Increasing the melting temperature of VHH with the in silico free energy score” (Scientific Reports, 2023) are described below.

B1: D3-L11 A79T (VHH)
VHH: DVQLVESGGGSVQAGGSLRLSCAASGSTDSIEYMTWFRQAPGKAREGVAALYTHTGNTYYTDSVKGRFTISQDKAKNMTYLRMDSVKSEDTAIYTCGATRKYVPVRFALDQSSYDYWGQGTQVTVSS
notes: as the VHH chain of Sm1 (D3-L11 wild type, PDB 6JB8) with A79T; SAG tripeptide linker before the C-terminal 6xHis tag; source: ExpiCHO, transient transfection, purified from supernatant (His Mag Sepharose excel); not shown: His6, C-terminal, kept
B2: D3-L11 A79N (VHH)
VHH: B1 VHH with T79N
notes: as the VHH chain of m2 (D3-L11, PDB 6JB8) with the stated substitution; Second-round mutant; same construct as m2; also called N mutant; source: ExpiCHO, transient transfection, purified from supernatant (His Mag Sepharose excel); not shown: His6 (after a SAG tripeptide linker), C-terminal, kept
B3: D3-L11 A79E (VHH)
VHH: B1 VHH with T79E
notes: as the VHH chain of m2 (D3-L11, PDB 6JB8) with the stated substitution; Second-round mutant; same construct as m2; Too little protein for SPR; also called E mutant; source: ExpiCHO, transient transfection, purified from supernatant (His Mag Sepharose excel); not shown: His6 (after a SAG tripeptide linker), C-terminal, kept
B4: D3-L11 A79P (VHH)
VHH: B1 VHH with T79P
notes: as the VHH chain of m2 (D3-L11, PDB 6JB8) with the stated substitution; Second-round mutant; same construct as m2; Too little protein for SPR; also called P mutant; source: ExpiCHO, transient transfection, purified from supernatant (His Mag Sepharose excel); not shown: His6 (after a SAG tripeptide linker), C-terminal, kept
B5: D3-L11 A79L (VHH)
VHH: B1 VHH with T79L
notes: as the VHH chain of m2 (D3-L11, PDB 6JB8) with the stated substitution; Second-round mutant; same construct as m2; also called L mutant; source: ExpiCHO, transient transfection, purified from supernatant (His Mag Sepharose excel); not shown: His6 (after a SAG tripeptide linker), C-terminal, kept
B6: D3-L11 A79M (VHH)
VHH: B1 VHH with T79M
notes: as the VHH chain of m2 (D3-L11, PDB 6JB8) with the stated substitution; Second-round mutant; same construct as m2; also called M mutant; source: ExpiCHO, transient transfection, purified from supernatant (His Mag Sepharose excel); not shown: His6 (after a SAG tripeptide linker), C-terminal, kept
B7: D3-L11 A79V (VHH)
VHH: B1 VHH with T79V
notes: as the VHH chain of m2 (D3-L11, PDB 6JB8) with the stated substitution; Second-round mutant; same construct as m2; also called V mutant; source: ExpiCHO, transient transfection, purified from supernatant (His Mag Sepharose excel); not shown: His6 (after a SAG tripeptide linker), C-terminal, kept
B8: D3-L11 A79K (VHH)
VHH: B1 VHH with T79K
notes: as the VHH chain of m2 (D3-L11, PDB 6JB8) with the stated substitution; Second-round mutant; same construct as m2; Too little protein for SPR; also called K mutant; source: ExpiCHO, transient transfection, purified from supernatant (His Mag Sepharose excel); not shown: His6 (after a SAG tripeptide linker), C-terminal, kept
B9: D3-L11 A79S (VHH)
VHH: B1 VHH with T79S
notes: as the VHH chain of m2 (D3-L11, PDB 6JB8) with the stated substitution; Second-round mutant; same construct as m2; also called S mutant; source: ExpiCHO, transient transfection, purified from supernatant (His Mag Sepharose excel); not shown: His6 (after a SAG tripeptide linker), C-terminal, kept
B10: D3-L11 A79W (VHH)
VHH: B1 VHH with T79W
notes: as the VHH chain of m2 (D3-L11, PDB 6JB8) with the stated substitution; Second-round mutant; same construct as m2; also called W mutant; source: ExpiCHO, transient transfection, purified from supernatant (His Mag Sepharose excel); not shown: His6 (after a SAG tripeptide linker), C-terminal, kept
B11: D3-L11 A79C (VHH)
VHH: B1 VHH with T79C
notes: as the VHH chain of m2 (D3-L11, PDB 6JB8) with the stated substitution; Second-round mutant; same construct as m2; also called C mutant; source: ExpiCHO, transient transfection, purified from supernatant (His Mag Sepharose excel); not shown: His6 (after a SAG tripeptide linker), C-terminal, kept
B12: D3-L11 A79T (VHH)
VHH: B1 VHH
notes: as the VHH chain of m2 (D3-L11, PDB 6JB8) with the stated substitution; Second-round mutant; same construct as m2; also called T mutant; source: ExpiCHO, transient transfection, purified from supernatant (His Mag Sepharose excel); not shown: His6 (after a SAG tripeptide linker), C-terminal, kept
B13: D3-L11 A79R (VHH)
VHH: B1 VHH with T79R
notes: as the VHH chain of m2 (D3-L11, PDB 6JB8) with the stated substitution; Second-round mutant; same construct as m2; also called R mutant; source: ExpiCHO, transient transfection, purified from supernatant (His Mag Sepharose excel); not shown: His6 (after a SAG tripeptide linker), C-terminal, kept
B14: D3-L11 A79Q (VHH)
VHH: B1 VHH with T79Q
notes: as the VHH chain of m2 (D3-L11, PDB 6JB8) with the stated substitution; Second-round mutant; same construct as m2; also called Q mutant; source: ExpiCHO, transient transfection, purified from supernatant (His Mag Sepharose excel); not shown: His6 (after a SAG tripeptide linker), C-terminal, kept
B15: D3-L11 A79H (VHH)
VHH: B1 VHH with T79H
notes: as the VHH chain of m2 (D3-L11, PDB 6JB8) with the stated substitution; Second-round mutant; same construct as m2; also called H mutant; source: ExpiCHO, transient transfection, purified from supernatant (His Mag Sepharose excel); not shown: His6 (after a SAG tripeptide linker), C-terminal, kept
B16: D3-L11 A79I (VHH)
VHH: B1 VHH with T79I
notes: as the VHH chain of m2 (D3-L11, PDB 6JB8) with the stated substitution; Second-round mutant; same construct as m2; also called I mutant; source: ExpiCHO, transient transfection, purified from supernatant (His Mag Sepharose excel); not shown: His6 (after a SAG tripeptide linker), C-terminal, kept
B17: D3-L11 A79Y (VHH)
VHH: B1 VHH with T79Y
notes: as the VHH chain of m2 (D3-L11, PDB 6JB8) with the stated substitution; Second-round mutant; same construct as m2; also called Y mutant; source: ExpiCHO, transient transfection, purified from supernatant (His Mag Sepharose excel); not shown: His6 (after a SAG tripeptide linker), C-terminal, kept
B18: D3-L11 A79F (VHH)
VHH: B1 VHH with T79F
notes: as the VHH chain of m2 (D3-L11, PDB 6JB8) with the stated substitution; First-round mutant; same construct as m2; also called F mutant; source: ExpiCHO, transient transfection, purified from supernatant (His Mag Sepharose excel); not shown: His6 (after a SAG tripeptide linker), C-terminal, kept

Substitutions are numbered along the chain they refer to. Names and notes keep the numbering of the source. Some results are limits rather than exact numbers.

One assay has as its target T1, hen egg lysozyme (Gallus gallus (hen egg white), UniProt P00698).
T1 construct: hen egg lysozyme (HEL), the antigen of D3-L11; also in PDB 6JB8; The supplier is named for the ELISA only; also called HEL; antigen lysozyme; source: bought: Sigma-Aldrich, Cat No. L6876
Kind of assay: SPR; Biacore T200; lysozyme immobilised on Sensor Chip CM5 by amine coupling (200 RU); VHH injected 300 s, dissociation 600 s in PBST (PBS, 0.005% Tween 20); 1:1 binding model; duplicate. The settings on record: both partners purified. A general note: Surface plasmon resonance follows binding to a sensor surface in real time, without labels.
T1 sequence (P00698 19-147): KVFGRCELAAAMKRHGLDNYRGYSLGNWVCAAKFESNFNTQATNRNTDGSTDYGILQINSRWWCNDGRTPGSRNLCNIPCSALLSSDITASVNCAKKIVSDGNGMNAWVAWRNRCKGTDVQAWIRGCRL
In general, Kd refers to the constant that tells how readily two partners part at equilibrium. Read a high Kd as lower affinity. In turn, B1 displayed a Kd of 13.1 ± 0.4 pM.

The next assay deals with T2, hen egg lysozyme (Gallus gallus (hen egg white), UniProt P00698).
T2 construct: hen egg lysozyme (HEL), antigen of VHH D3-L11; also in the complex structure PDB 6JB8; also called HEL; antigen lysozyme; source: bought: Sigma-Aldrich, Cat No. L6876 (named for the ELISA)
The assay is described as follows: ELISA; lysozyme (1 ug/mL) coated on 384-well MaxiSorp plate overnight at 4 °C; serial concentrations of VHH in 5% BlockingOne in TBST, 1 h at room temperature; detected with Penta-His HRP conjugate. The settings on record: both partners purified.
T2 sequence (P00698 19-147): as above
With B2, the “fold decrease in affinity (EC50) against wild type” value (“fold decrease in affinity (EC50)” below) is below 10 fold.

As to B3, the binding result is recorded as “binds”.

Regarding B4, the binding result is reported as “binds”.

Consider B5, for which the “fold decrease in affinity (EC50)” value is below 10 fold.

For B6, the “fold decrease in affinity (EC50)” value was below 10 fold.

With B7, the “fold decrease in affinity (EC50)” value was below 10 fold.

Regarding B8, the binding result is “binds”.

With B9, the “fold decrease in affinity (EC50)” value is below 10 fold.

In another assay the target is T2, hen egg lysozyme. The assay is described as follows: SPR; Biacore T200; lysozyme immobilised on Sensor Chip CM5 by amine coupling to 200 RU; VHH injected 300 s, dissociation 600 s; running buffer PBST (PBS, 0.005% Tween 20); duplicate; 1:1 binding model. The settings on record: both partners purified.
As to B10, the “fold decrease in affinity (KD) against wild type” value (from here on “fold decrease in affinity (KD)”) is below 10 fold.

For the molecule B11, the “fold decrease in affinity (KD)” value was below 2 fold.

Turning to B12, the “fold decrease in affinity (KD)” value is below 10 fold.

Consider B2, for which the “fold decrease in affinity (KD)” value is below 10 fold.

Turning to B5, the “fold decrease in affinity (KD)” value is below 10 fold.

For the molecule B13, the “fold decrease in affinity (KD)” value is below 10 fold.

As for B14, the “fold decrease in affinity (KD)” value was below 10 fold.

Regarding B15, the “fold decrease in affinity (KD)” value is below 10 fold.

For the molecule B16, the “fold decrease in affinity (KD)” value came to 1.6 fold.

Consider B6, for which the “fold decrease in affinity (KD)” value was below 10 fold.

As to B7, the “fold decrease in affinity (KD)” value is below 2 fold.

For the molecule B17, the “fold decrease in affinity (KD)” value was below 2 fold.

As to B9, the “fold decrease in affinity (KD)” value is below 10 fold.

Turning to B18, the “fold decrease in affinity (KD)” value is below 10 fold.
